Measurements as given in article PMC5027486 (Nucleic Acids Research, 2016).

B3: Pseudomonas aeruginosa mismatch repair protein MutS (natural protein, UniProt Q9HY08 1-855, looked up)
chain: MTDLSQHTPMMQQYFKLKHQHPDQLMFYRMGDFYELFYEDAKKAAKLLDITLTARGQSGGKAIPMAGIPFHSAEGYLAKLVKLGESVAICEQIGDPATSKGPVERQVVRIITPGTVSDEALLDERRDNLLAAILGDERLFGLAVLDITSGRFSVQEIKGWETLLAELERLNPAELLIPDDWPQGLPAEKRRGVRRRAPWDFDRDSAHKSLCQQFGTQDLKGFGCQNLTLAIGAAGCLLAYAKETQRTALPHLRSLRHDRLDDTVILDGASRRNLELDINLSGGRENTLQSVVDRCQTAMASRLMSRWLNRPLRDRAVLEARQESIACLLERYRFENLQPQLKEIGDLERILARIGLRNARPRDLARLRDALAALPDLQNAMTELEAPHLQALATTIGTYPELAELLAKAIIDNPPAVIRDGGVIKTGYDAELDELQALSENAGQFLMDLEAREKARTGLPNLKVGYNRIHGYFIELPRVQAEQAPADYIRRQTLKGAERFITPELKAFEDKALSAQSRALAREKALYEELLERLIGHLAPLQDSASALAELDVLANLAERALNLDLNRPRFVEHTCLHIEQGRHPVVEQVLETPFVANDLALDADTRMLVITGPNMGGKSTYMRQTALIVLLAHIGSFVPAARCELSLVDRIFTRIGSSDDLAGGRSTFMVEMSETANILHNATDKSLVLMDEVGRGTSTFDGLSLAWAAAEDLARTRAFTLFATHYFELTVLPESQPAVANVHLNATEHNERIVFLHHVLPGPASQSYGLAVAQLAGVPAPVIQRAREHLKRLETTSLPHEMPSQQSGKPASPMQSDLFASLPHPVIDELSRINPDDISPRQALDLLYAWKMRV
B4: Pseudomonas aeruginosa β clamp processivity factor (natural protein, UniProt Q9I7C4 1-367, looked up)
chain: MHFTIQREALLKPLQLVAGVVERRQTLPVLSNVLLVVEGQQLSLTGTDLEVELVGRVVLEDAAEPGEITVPARKLMDICKSLPNDVLIDIRVEEQKLLVKAGRSRFTLSTLPANDFPTVEEGPGSLNFSIAQSKLRRLIDRTSFAMAQQDVRYYLNGMLLEVNGGTLRSVATDGHRLAMCSLDAQIPSQDRHQVIVPRKGILELARLLTEQDGEVGIVLGQHHIRATTGEFTFTSKLVDGKFPDYERVLPRGGDKLVVGDRQQLREAFSRTAILSNEKYRGIRLQLSNGLLKIQANNPEQEEAEEEVQVEYNGGNLEIGFNVSYLLDVLGVIGTEQVRFILSDSNSSALVHEADNDDSAYVVMPMRL

Tests used:
[1] = molecular target: B4; experiment: SPR
[2] = molecular target: B4; experiment: native gel or EMSA
[3] = molecular target: B4; experiment: native gel or EMSA; remark: listed apart in the source
[4] = molecular target: B3; experiment: SPR
[5] = molecular target: B3; experiment: native gel or EMSA

B1: Pseudomonas aeruginosa DNA polymerase IV (Pol IV) (enzyme, UniProt Q9I534 1-349, looked up)
chain: MRKIIHIDCDCFYAALEMRDDPSLRGKALAVGGSPDKRGVVATCSYEARAYGVRSAMAMRTALKLCPDLLVVRPRFDVYRAVSKQIHAIFRDYTDLIEPLSLDEAYLDVSASPHFAGSATRIAQDIRRRVAEELHITVSAGVAPNKFLAKIASDWRKPDGLFVITPEQVDGFVAELPVAKLHGVGKVTAERLARMGIRTCADLRQGSKLSLVREFGSFGERLWGLAHGIDERPVEVDSRRQSVSVECTFDRDLPDLAACLEELPTLLEELDGRLQRLDGSYRPDKPFVKLKFHDFTQTTVEQSGAGRDLESYRQLLGQAFARGNRPVRLIGVGVRLLDLQGAHEQLRLF
Kd [1]: 8.97 µM
koff [1]: 0.0052 s⁻¹
kon [1]: 580 M⁻¹ s⁻¹
Kd [2]: 6.22 ± 0.51 µM
stoichiometry N [2]: 1.09 ± 0.06

B2: MQSDLFA peptide (7-mer spanning the β clamp binding motif of MutS) (peptide)
peptide: MQSDLFA
binding result [3]: binds

B3
stoichiometry N [2]: 4

B4
koff [4]: 0.111 s⁻¹
kon [4]: 112000 M⁻¹ s⁻¹
Kd [5]: 1.66 ± 0.09 µM
